Experimental data taken from publication PMC6173970.

Target: F-actin (actin purified from chicken breast, polymerized and phalloidin-stabilized) (chicken) (UniProt P68139)
Test: co-sedimentation

Substance | stoichiometry N
6xHis-FLNaABD-A128V (from UniProt P21333 1-278) (domain or fragment) | 1
6xHis-FLNaABD-wt (human filamin A actin-binding domain, wild type) (from UniProt P21333 1-278) (domain or fragment) | 1
6xHis-FLNaABD-E254K (domain or fragment) | 1
6xHis-FLNaABD-Q170P (from UniProt P21333 1-278) (domain or fragment) | 1
